Test results published in PMC5385842 (Science signaling, 2016).

Target: the molecule itself
Assay: two-colour single-particle tracking

B1: pre-B cell receptor (pre-BCR) on the surface of 697 cells (complex)
chain 1: GSASAPTLFPLVSCENSPSDTSSVAVGCLAQDFLPDSITFSWKYKNNSDISSTRGFPSVLRGGKYAATSQVLLPSKDVMQGTDEHVVCKVQHPNGNKEKNVPLPVIAELPPKVSVFVPPRDGFFGNPRKSKLICQATGFSPRQIQVSWLREGKQVGSGVTTDQVQAEAKESGPTTYKVTSTLTIKESDWLGQSMFTCRVDHRGLTFQQNASSMCVPDQDTAIRVFAIPPSFASIFLTKSTKLTCLVTDLTTYDSVTISWTRQNGEAVKTHTNISESHPNATFSAVGEASICEDDWNSGERFTCTVTHTDLPSPLKQTISRPKGVALHRPDVYLLPPAREQLNLRESATITCLVTGFSPADVFVQWMQRGQPLSPEKYVTSAPMPEPQAPGRYFAHSILTVSEEEWNTGETYTCVVAHEALPNRVTERTVDKSTEGEVSADEEGFENLWATASTFIVLFLLSLFYSTTVTLFKVK
chain 2: QPVLHQPPAMSSALGTTIRLTCTLRNDHDIGVYSVYWYQQRPGHPPRFLLRYFSQSDKSQGPQVPPRFSGSKDVARNRGYLSISELQPEDEAMYYCAMGARSSEKEEREREWEEEMEPTAARTRVP
chain 3: LLRPTAASQSRALGPGAPGGSSRSSLRSRWGRFLLQRGSWTGPRCWPRGFQSKHNSVTHVFGSGTQLTVLSQPKATPSVTLFPPSSEELQANKATLVCLMNDFYPGILTVTWKADGTPITQGVEMTTPSKQSNNKYAASSYLSLTPEQWRSRRSYSCQVMHEGSTVEKTVAPAECS
chain 4: LWMHKVPASLMVSLGEDAHFQCPHNSSNNANVTWWRVLHGNYTWPPEFLGPGEDPNGTLIIQNVNKSHGGIYVCRVQEGNESYQQSCGTYLRVRQPPPRPFLDMGEGTKNRIITAEGIILLFCAVVPGTLLLFRKRWQNEKLGLDAGDEYEDENLYEGLNLDDCSMYEDISRGLQGTYQDVGSLNIGDVQLEKP
chain 5: ARSEDRYRNPKGSACSRIWQSPRFIARKRGFTVKMHCYMNSASGNVSWLWKQEMDENPQQLKLEKGRMEESQNESLATLTIQGIRFEDNGIYFCQQKCNNTSEVYQGCGTELRVMGFSTLAQLKQRNTLKDGIIMIQTLLIILFIIVPIFLLLDKDDSKAGMEEDHTYEGLDIDQTATYEDIVTLRTGEVKWSVGEHPGQE
With B1 the koff was 1.14 s⁻¹ and the “stoichiometry N” value was 2.
